Experimental findings from IntAct's records for PubMed 10393177 are described below.

B1: Stress-activated protein kinase jnk-1 (Caenorhabditis elegans), Q8WQG9 (parent)
chain: MEERLSTTSSYPSHPGRSVEEDHNTLLASSSISSIIRGTRGHLNNFIESVGNWLVPSSSGRDDDAVSLDSCQSVYSPVRHHINSGTGGGILMEPSSIHVPENYYSVTIGEAQMVVLKRYQNLRLIGSGAQGIVCSAFDTVRNEQVAIKKLSRPFQNVTHAKRAYRELKLMSLVNHKNIIGILNCFTPQKKLDEFNDLYIVMELMDANLCQVIQMDLDHERLSYLLYQMLCGIRHLHSAGIIHRDLKPSNIVVRSDCTLKILDFGLARTAIEAFMMTPYVVTRYYRAPEVILGMGYKENVDVWSIGCIFGELIRGRVLFPGGDHIDQWTRIIEQLGTPDRSFLERLQPTVRNYVENRPRYQATPFEVLFSDNMFPMTADSSRLTGAQARDLLSRMLVIDPERRISVDDALRHPYVNVWFDEIEVYAPPPLPYDHNMDVEQNVDSWREHIFRELTDYARTHDIYS

The assay covers variants of B1. The conditions noted are these: with jun_human JUN.
For the variant K148R, the “effect of a mutation on the interaction” value was “disrupting interaction”.
